Laboratory results as given in publication PMC6145688 (2018).

B1: SDC4-derived peptide GL21 (protein)
chain: GALPDDEDVVGPGQESDDFEL
B2: SDC4-derived peptide VS52 (protein)
chain: VHPLVPLDNHIPERAGSGSQVPTEPKKLEENEVIPKRISPVEESEDVSNKVS
B3: SDC4-derived peptide RD26 (protein)
chain: RETEVIDPQDLLEGRYFSGALPDDED

target: Recombinant active autotaxin-β (ATXβ) (Homo sapiens (Human), UniProt Q13822); assay: SPR

binding result	Binder
no binding	B1
no binding	B2
no binding	B3
